From patent US20250027114

Tests used:
[1] = test system: T1, Nme2Cas9 (Nme2-ABE8e) (Neisseria meningitidis); assay: cell_activity; settings: PAM N4YNC average, E. coli ABE-PPA; 14% on N4YND
T1 sequence: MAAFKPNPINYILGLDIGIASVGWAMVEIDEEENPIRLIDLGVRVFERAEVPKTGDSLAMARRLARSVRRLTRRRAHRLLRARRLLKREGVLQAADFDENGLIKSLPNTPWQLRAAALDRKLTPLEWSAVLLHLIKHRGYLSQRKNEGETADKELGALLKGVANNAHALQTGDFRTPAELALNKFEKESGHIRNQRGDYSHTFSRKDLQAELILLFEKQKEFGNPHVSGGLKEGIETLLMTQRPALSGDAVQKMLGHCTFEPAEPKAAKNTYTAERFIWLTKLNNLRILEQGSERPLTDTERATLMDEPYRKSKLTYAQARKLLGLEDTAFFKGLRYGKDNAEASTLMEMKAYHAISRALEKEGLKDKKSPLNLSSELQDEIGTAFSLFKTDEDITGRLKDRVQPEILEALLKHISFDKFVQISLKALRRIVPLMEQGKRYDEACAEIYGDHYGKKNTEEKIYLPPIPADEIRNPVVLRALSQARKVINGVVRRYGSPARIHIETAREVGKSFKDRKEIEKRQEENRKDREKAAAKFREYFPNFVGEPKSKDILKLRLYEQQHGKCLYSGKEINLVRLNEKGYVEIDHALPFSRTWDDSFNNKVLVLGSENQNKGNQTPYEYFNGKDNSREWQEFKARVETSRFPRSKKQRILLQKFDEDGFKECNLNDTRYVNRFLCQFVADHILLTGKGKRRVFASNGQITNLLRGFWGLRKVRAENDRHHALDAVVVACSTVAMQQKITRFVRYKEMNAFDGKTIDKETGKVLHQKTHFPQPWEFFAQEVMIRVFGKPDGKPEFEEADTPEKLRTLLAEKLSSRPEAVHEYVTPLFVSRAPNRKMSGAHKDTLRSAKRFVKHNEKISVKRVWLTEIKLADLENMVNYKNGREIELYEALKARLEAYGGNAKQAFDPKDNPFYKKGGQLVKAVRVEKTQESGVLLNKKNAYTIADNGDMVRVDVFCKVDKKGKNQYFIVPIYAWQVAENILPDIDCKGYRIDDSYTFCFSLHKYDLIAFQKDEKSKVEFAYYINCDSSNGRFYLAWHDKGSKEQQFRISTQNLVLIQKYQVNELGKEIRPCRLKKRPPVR

[2] = test system: T2, eNme2-C-dABE8e (Neisseria meningitidis); assay: cell_activity; settings: all N4CN PAMs, E. coli ABE-PPA
T2 sequence: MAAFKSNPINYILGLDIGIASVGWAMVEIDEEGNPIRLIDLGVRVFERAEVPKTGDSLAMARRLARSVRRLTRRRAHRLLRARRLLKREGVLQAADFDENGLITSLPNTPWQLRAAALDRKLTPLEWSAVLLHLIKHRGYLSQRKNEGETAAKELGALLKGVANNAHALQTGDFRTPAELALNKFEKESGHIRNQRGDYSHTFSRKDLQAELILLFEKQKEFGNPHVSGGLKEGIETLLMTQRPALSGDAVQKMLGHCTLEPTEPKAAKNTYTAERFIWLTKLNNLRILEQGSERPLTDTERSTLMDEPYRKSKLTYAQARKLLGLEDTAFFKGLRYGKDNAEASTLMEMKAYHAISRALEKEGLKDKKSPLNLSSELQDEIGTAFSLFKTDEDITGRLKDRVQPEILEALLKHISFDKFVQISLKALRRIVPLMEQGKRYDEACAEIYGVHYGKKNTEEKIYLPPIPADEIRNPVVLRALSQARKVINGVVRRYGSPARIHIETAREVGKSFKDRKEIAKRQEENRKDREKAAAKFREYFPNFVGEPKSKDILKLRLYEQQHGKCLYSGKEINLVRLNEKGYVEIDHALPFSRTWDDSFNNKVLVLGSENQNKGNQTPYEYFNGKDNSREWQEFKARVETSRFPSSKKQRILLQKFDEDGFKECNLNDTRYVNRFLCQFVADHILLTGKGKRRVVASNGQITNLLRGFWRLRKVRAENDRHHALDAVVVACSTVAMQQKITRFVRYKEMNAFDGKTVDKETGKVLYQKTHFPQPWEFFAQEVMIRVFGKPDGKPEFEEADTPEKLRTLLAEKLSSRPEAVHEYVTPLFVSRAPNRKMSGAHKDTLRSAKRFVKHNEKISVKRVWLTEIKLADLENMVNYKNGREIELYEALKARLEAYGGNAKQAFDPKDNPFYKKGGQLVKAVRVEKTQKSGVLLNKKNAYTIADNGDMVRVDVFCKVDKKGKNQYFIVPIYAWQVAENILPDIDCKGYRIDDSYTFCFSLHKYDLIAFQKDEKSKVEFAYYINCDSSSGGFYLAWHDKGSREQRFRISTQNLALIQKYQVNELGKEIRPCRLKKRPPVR

Q: “AUGGCCCAGACUGAGCACGUGAGGUUGUAGCUCCCUUUCUCAUUUCGGAAACGAAAUGAGAACCGUUGCUACAAUAAGGCCGUCUGAAAAGAUGUGCCGCAACGCUCUGCCCCUUAAAGCUUCUGCUUUAAGGGGCAUCGUUUA / ATGGCCCAGACTGAGCACGTGA / TCACGTGCTCAGTCTGGGCCAT [ABE-PPA sgRNA ; ABE-PPA protospacer library target]” was tested. Which activity (% A-to-G conversion) [1] did it give?
A: 18

Q: What about the activity (% A-to-G conversion) [2] of the same sequence?
A: > 80
